Measured values reported in patent US10772972B2, “Anti-STEAP2 antibody drug conjugates, and compositions and uses thereof” (Regeneron Pharmaceuticals, Inc., priority 2016, dated 2020).

Columns and labels:
cynomolgus T cells = assay: FACS binding titration of STEAP2xCD3 bispecifics on cynomolgus T cells; conditions: 66.6 nM to 0.001 nM, 30 minutes at 4° C.
Experimental: FACS Binding Titration on Jurkat Cells, PC3_STEAP2/1 Cells and cynomolgus T Cells: Flow cytometric analysis was utilized to determine binding of STEAP2×CD3 bispecific antibodies to Jurkat, PC3_STEAP2/1 chimeric and cynomolgus T cells, followed by detection with a phycoerythrin (PE)-labeled anti-human IgG antibody. Briefly, 2×10^5 cells/well were incubated for 30 minutes at 4° C. with a serial dilution of STEAP2×CD3 bispecific antibodies or control antibody (a human IgG1 antibody that binds a feline antigen with no cross-reactivity to STEAP2 or human or cynomolgus CD3) ranging from 66.6 nM to 0.001 nM. After incubation, the cells were washed twice with cold PBS containing 1% filtered FBS and a PE-conjugated anti-human secondary antibody was added to the cells and incubated for an additional 30 minutes. Wells containing no antibody or secondary antibody only were used as a control. After incubation, cells were washed, re-suspended in 200 μL cold PBS containing 1% filtered FBS and analyzed by flow cytometry on a BD FACS Canto II.

monkey PBMCs = assay: T cell proliferation assay, cynomolgus PBMC; format: cell-based; conditions: for Cynomolgus PBMC proliferation activity (in words): across donors tested
Experimental: Thawed human or freshly isolated monkey PBMCs (50,000 cells/well) were incubated with 3-fold (human, concentration range: 5E-10M to 2.82E-15M; cynomolgus, concentration range: 1E-09M to 4.57E-13M) serial dilutions of STEAP2×CD3 bispecifics or isotype control in complete medium (RPMI supplemented with 10% FBS, 100 U/mL penicillin, 100 μg/mL streptomycin, 292 μg/mL L-glutamine) and a fixed concentration (human: 200 ng/mL, cyno: 500 ng/mL) of a commercial anti-CD28 antibody (Biolegend, Catalog #302914) in white flat bottom 96-well plates for 72 hours at 37° C. Isolated monkey PBMCs were from two donors (identified as mk8781M or mk9381M). Following incubation, CellTiter Glo® (Promega, Cat #7573) was added and luminescence, as readout for cell viability, was measured using a VICTOR X5 multi-label plate reader. Cell titer was calculated by dividing the luminescence of stimulated cells by the baseline luminescence of unstimulated cells.

[1] = system: C4-2 cells (high-STEAP2 expressing); assay: Internalization and total binding on C4-2 cells (imaging, qualitative score); format: cell-based, human; parameters: key: − (no internalization or binding); +(weak internalization or binding); ++(moderate internalization or binding); +++(robust internalization or binding); conditions: 10 μg/ml antibody
Experimental: Briefly, 20,000 C4-2 cells were seeded in PDL coated 96 well plates. The next day, cells were incubated with anti-human STEAP2 antibodies (10 μg/ml) for 30 min on ice followed by two PBS washes. Cells were then incubated with alexa488-conjugated anti-hFc Fab secondary antibody for 30 minutes on ice, followed by two additional PBS washes. Antibodies were allowed to internalize for 1 h at 37° C. in internalization buffer (PBS+2% FBS) or were maintained at 4° C. Cells were fixed in 4% formaldehyde, nuclei were stained with DRAQ5 (Cell signaling), and images were acquired on the ImageXpress micro XL (Molecular Devices).
A qualitative visual assessment of the total binding intensity and the intensity of antibodies that had internalized into vesicles was performed and scored according to the following criteria: − (no internalization or binding), +(weak internalization or binding), ++(moderate internalization or binding) and +++(robust internalization or binding).

[2] = system: human prostate cancer C4-2 cells (xenograft); assay: C4-2/human PBMC co-implant xenograft in NSG mice, immediate dosing; format: in vivo, mouse; conditions: C4-2/NSG; for Tumor growth compared to isotype control at study endpoint (in words): 0.1 or 0.01 mg/kg
Description: To assess the in vivo efficacy of the anti-STEAP2/anti-CD3 bispecifics in human tumor xenograft studies, NOD scid gamma (NSG) mice (Jackson Laboratories, Bar Harbor, Me.) were co-implanted with human peripheral blood mononuclear cells (PBMCs; ReachBio LLC., Seattle, Wash.) along with human prostate cancer C4-2 cells (MD Anderson Cancer Center, Houston Tex.) which endogenously express STEAP2.
Briefly, 5.0×10^6 C4-2 cells were co-implanted subcutaneously (s.c.) with 1.25×10^6 human PBMCs in a 50:50 mix of matrigel matrix (BD Biosciences, San Jose, Calif.) into the right flank of male NSG mice. Mice were treated intraperitoneally (i.p.) on the day of implantation (immediate treatment model) with anti-STEAP2/anti-CD3 bispecifics BSSTEAP2/CD3-001, BSSTEAP2/CD3-002 or BSSTEAP2/CD3-003, or an isotype control, at a dose of 0.1 or 0.01 mg/kg (N=5 mice/group).
Tumor size was measured 2×/week using calipers and tumor volume calculated as Volume=(length×width^2)/2. Data is shown as tumor size (mm^3) at study endpoint, 46 d post-tumor implantation (Table 7).

[3] = 0.01 mg/kg i.p. on day of implantation
[4] = 0.1 mg/kg i.p. on day of implantation

B1: BSSTEAP2/CD3-004: STEAP2×CD3 bispecific: anti-STEAP2 H1H7814N (SEQ 218), anti-CD3 H1H7251P (SEQ 1570), common LCVR SEQ 226 (antibody, V domains shown)
VH 1: QVQLVESGGGVVQPGRSLRLSCVASGFTISSYGMNWVRQAPGKGLEWVAVISYDGGNKYSVDSVKGRFTISRDNSKNTLYLQMNSLRAEDSAVYYCARGRYFDLWGRGTLVTVSS
VH 2: EVQLVESGGGLVQPGRSLRLSCAASGFTFADYTMHWVRQGPGTGLEWVSDIGWSGGSLGYADSVKGRFTISRDNAKNSLYLEMNNLRPEDTALYYCVKDKSGYGKFQYGLDVWGQGTTVTVSS
VL: DIQMTQSPSTLSASVGDRVTITCRASQSISSWLAWYQQKPGRAPNLLISKASSLKSGVPSRFSGSGSGTEFTLTVSSLQPDDFATYYCQQYYSYSYTFGQGTKLEIK
Cynomolgus T cells
  EC50: 1.99 nM
Monkey PBMCs
  Cynomolgus PBMC proliferation activity (in words): donor dependent

B2: H1H7814N: human-Fc anti-STEAP2 antibody, HCVR/LCVR SEQ ID NOs 218/226 (antibody, V domains shown)
VH: QVQLVESGGGVVQPGRSLRLSCVASGFTISSYGMNWVRQAPGKGLEWVAVISYDGGNKYSVDSVKGRFTISRDNSKNTLYLQMNSLRAEDSAVYYCARGRYFDLWGRGTLVTVSS
VL: DIQMTQSPSTLSASVGDRVTITCRASQSISSWLAWYQQKPGRAPNLLISKASSLKSGVPSRFSGSGSGTEFTLTVSSLQPDDFATYYCQQYYSYSYTFGQGTKLEIK
modifications: human Fc
[1]
  Internalization (37° C., 1 h) Qualitative Score: +
  Total Binding (4° C.) Qualitative Score: +

B3: BSSTEAP2/CD3-002: STEAP2×CD3 bispecific: anti-STEAP2 HCVR H2M11162N (SEQ 250), anti-CD3 HCVR CD3-VH-G5 (SEQ 1762), common LCVR SEQ 258 (antibody, V domains shown)
VH 1: QVQLQQSGPGLVKPSQTLSLTCAISGDSVSSNRAAWNWIRQSPSRGLQWLGRTYYRSKWYNDYAVSLRSRITINPVTSKNQVALHMNSVTPEDTAVYYCARAGIVVVPGPETFYYYDHGLDVWGQGTTVTVSS
VH 2: EVQLVESGGGLVQPGRSLRLSCAASGFTFDDYSMHWVRQAPGKGLEWVSGISWNSGSIGYADSVKGRFTISRDNAKNSLYLQMNSLRAEDTALYYCAKDGSGYGKFYYYGMDVWGQGTTVTVSS
VL: DIQMTQSPSSLSASVGDRVTITCRASQSIRSYLNWYQQKPGKAPELLIHAASSLQSGVPSRFSGSGSGTDFTLTISSLQPEDFASYYCQQSYSAPPITFGQGTRLEIK
[2]; [3]
  Tumor Size (mm^3) 46 d post-tumor implantation (mean ± SD): 17.0 ± 8.0 mm^3
[2]; [4]
  Tumor Size (mm^3) 46 d post-tumor implantation (mean ± SD): 15.0 ± 12.0 mm^3
[2]
  Tumor growth compared to isotype control at study endpoint (in words): significantly suppressed tumor growth

B4: H2M11164N: anti-STEAP2 antibody, mouse IgG2 Fc, HCVR/LCVR SEQ ID NOs 282/290 (antibody, V domains shown)
VH: QVQLQQSGPGLVKPSQTLSLTCVISGDSVSTNSAAWNWIRQSPSRGLEWLGRTYYRSKWYNDYAVSVRSRITINPVTSKNQVALHLNSVTPEDTAVYYCARAGIVVVPGPETYYYYYHGLDVWGQGTTVTVSS
VL: DIQMTQSPSSLSASVGDRVTITCRASQNIRSYLNWYQQKPGKAPKLLIHVASSLQSGVPSRFSGSGSGTDFTLTISSLQPEDFATYYCQQSYSTPPITFGHGTRLEIK
modifications: mouse IgG2 Fc
[1]
  Internalization (37° C., 1 h) Qualitative Score: +++
  Total Binding (4° C.) Qualitative Score: +++

B5: BSSTEAP2/CD3-006: STEAP2×CD3 bispecific: anti-STEAP2 H1H11162 (SEQ 250), anti-CD3 CD3-VH-P (SEQ 1882), common LCVR SEQ 258 (antibody, V domains shown)
VH 1: QVQLQQSGPGLVKPSQTLSLTCAISGDSVSSNRAAWNWIRQSPSRGLQWLGRTYYRSKWYNDYAVSLRSRITINPVTSKNQVALHMNSVTPEDTAVYYCARAGIVVVPGPETFYYYDHGLDVWGQGTTVTVSS
VH 2: EVQLVESGGGLVQPGRSLRLSCVASGFTFDDYSMHWVRQAPGKGLEWVSGISWNSGSKDYADSVKGRFTISRDNAKNSLYLQMNSLRAEDTALYYCAKYGSGYGKFYHYGLDVWGQGTTVTVSS
VL: DIQMTQSPSSLSASVGDRVTITCRASQSIRSYLNWYQQKPGKAPELLIHAASSLQSGVPSRFSGSGSGTDFTLTISSLQPEDFASYYCQQSYSAPPITFGQGTRLEIK
Cynomolgus T cells
  EC50: 7.99 nM
Monkey PBMCs
  Cynomolgus PBMC proliferation activity (in words): induced robust cynomolgus PBMC proliferation in all donors tested
Monkey PBMCs; donor mk9381M, anti-CD28 500 ng/mL, 72 hours, read-out: Cyno PBMC Proliferation [M] (donor)
  EC50: 1.53e-11 M

B6: BSSTEAP2/CD3-003: STEAP2×CD3 bispecific: anti-STEAP2 HCVR H2M11162N (SEQ 250), anti-CD3 HCVR CD3-VH-G20 (SEQ 1866), common LCVR SEQ 258 (antibody, V domains shown)
VH 1: QVQLQQSGPGLVKPSQTLSLTCAISGDSVSSNRAAWNWIRQSPSRGLQWLGRTYYRSKWYNDYAVSLRSRITINPVTSKNQVALHMNSVTPEDTAVYYCARAGIVVVPGPETFYYYDHGLDVWGQGTTVTVSS
VH 2: EVQLVESGGGLVQPGRSLRLSCAASGFTFDDYSMHWVRQAPGKGLEWVSGISWNSGSIGYADSVKGRFTISRDNAKNSLYLQMNSLRAEDTALYYCAKYGSGYGKFYYYGMDVWGQGTTVTVSS
VL: DIQMTQSPSSLSASVGDRVTITCRASQSIRSYLNWYQQKPGKAPELLIHAASSLQSGVPSRFSGSGSGTDFTLTISSLQPEDFASYYCQQSYSAPPITFGQGTRLEIK
[2]; [3]
  Tumor Size (mm^3) 46 d post-tumor implantation (mean ± SD): 25.0 ± 21.0 mm^3
[2]; [4]
  Tumor Size (mm^3) 46 d post-tumor implantation (mean ± SD): 19.0 ± 12.0 mm^3
[2]
  Tumor growth compared to isotype control at study endpoint (in words): significantly suppressed tumor growth

B7: H2M11162N: anti-STEAP2 antibody, mouse IgG2 Fc, HCVR/LCVR SEQ ID NOs 250/258 (antibody, V domains shown)
VH: QVQLQQSGPGLVKPSQTLSLTCAISGDSVSSNRAAWNWIRQSPSRGLQWLGRTYYRSKWYNDYAVSLRSRITINPVTSKNQVALHMNSVTPEDTAVYYCARAGIVVVPGPETFYYYDHGLDVWGQGTTVTVSS
VL: DIQMTQSPSSLSASVGDRVTITCRASQSIRSYLNWYQQKPGKAPELLIHAASSLQSGVPSRFSGSGSGTDFTLTISSLQPEDFASYYCQQSYSAPPITFGQGTRLEIK
modifications: mouse IgG2 Fc
[1]
  Internalization (37° C., 1 h) Qualitative Score: +++
  Total Binding (4° C.) Qualitative Score: +++

B8: H1H11880P: anti-STEAP2 antibody, HCVR/LCVR SEQ ID NOs 34/42 (antibody, V domains shown)
VH: EVQLVESGGGLVQPGGSLRLSCAASGFTFSTYAMHWVRQAPGKGLQHVSTISTNGVNTYYADSVKGRFTISRDNSKSTLYLQMGSLRAEDMAVYYCARDKDFWSGYFDYWGQGTLVTVSS
VL: EIVMTQSPGTLSVSPGERATLSCRASQSVSSNLAWYHQKPGQAPRLLIYGASTRATGFPARFSGSGSGTEFTLTISSLQSEDFAAYYCQQYNNWPITFGQGTRLEIK
[1]
  Internalization (37° C., 1 h) Qualitative Score: +
  Total Binding (4° C.) Qualitative Score: +
